# The nanobody polyreactivity screen of Harvey et al. (2022)
# Assay: yeast display, Sf9 membrane polyspecificity reagent, FACS + sequencing; frameworks hold sequencing errors
# Summary of the method: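 Genes from sorted yeast were amplified by colony PCR, read by MiSeq 2 × 250 sequencing and filtered on CDR length. These cells carried a synthetic nanobody library in Saccharomyces cerevisiae BJ5465 and were sorted by FACS into low and high (top ~1%) gates on anti-HA and streptavidin fluorescence. Polyreactivity is labelled according to the gate of origin.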
row,Sequence,polyreactivity (PSR sort gate)
1,QVQLVESGGGLVQAGGSLRLSCAASGSIFKYNAMGWYRQAPGKERELVAAITNGGSTYADSVKGRFTISRDNAKNTVYLQMNSLKPEDTAVYYCNFYGQDGVNVTYDYWGQGTQVTVSS,low polyreactivity
2,QVQLVESGGGLVQAGGSLRLSCAASGSIFKYNTMGWYRQAPGKERELVAAIRYSGGRTYYADSVKGRFTISRDYAKNTVYLQMNSLKPEDTAVYYCAAGSIQYRPTYTGDYWGQGTQVTVSS,high polyreactivity
3,QVQLVESGGGLVQAGGSLRLSCAASGSIFKYYAKGWYRQAPGKERELVAAITIGGNTNYADSVKGRFTISRDNAKNTVYLQMNSLKPEDTAVYYCATGGYYSAIVYGGYDYWGQGTQVTVSS,low polyreactivity
4,QVQLVESGGGLVQAGGSLRLSCAASGSIFKYYAMGSSRQAPGKERELVAAISTGGTTNYADSVKGRFTISRDNAKNTVYLQMNSLKPEDTAVYYCNRDYLVRSRYKYYYWGQGTQVTVSS,low polyreactivity
5,QVQLVESGGGLVQAGGSLRLSCAASGSIFKYYAMGWYRQAPGKERELVAAISTGGTTNYADYVKGRFTISRDNAKNTVYLQMNSLKPEDTAVYYCNRDYLVRSRYKYYYWGQGTQVTVSS,low polyreactivity
6,QVQLVESGGGLVQAGGSLRLSCAASGSIFKYYTMGWSRQAPGKERELVAAINSSGGSTYYADSVKGRFTISRYNAKNTVYLQMYSLKPEDTAVYYCIAVTSRRWRYELDYLGQGTQVTVSS,high polyreactivity
7,QVQLVESGGGLVQAGGSLRLSCAASGSIFKYYTMGWYRQAPGKERELVAAITYTGGRTYYADSVKGRFTISRDNAKNTVYLQMNSPKPEDTAVYYCAKDGPATVRRGYDYWGQGTQVTVSS,high polyreactivity
8,QVQLVESGGGLVQAGGSLRLSCAASGSIFLAYAMGCYRQATAKEREFVAANSFSDGSTYYADSVKGRFTISRDNAKNTVYLQMNSLKPEDTAVYYCNKGASPDDYDYWGQGTQVTESS,low polyreactivity
9,QVQLVESGGGLVQAGGSLRLSCAASGSIFLAYDMGWYRQAPGKERELVAGITSGGTTYYADSVKGRFTISRDNAKNTVYLQMNSLKPEDTAVYYCAVEPVFIVSEVLFDYWGQGTQVTVSS,low polyreactivity
10,QVQLVESGGGLVQAGGSLRLSCAASGSIFLAYLKGWYRQAPGKERELVAAISYRGVSTYYADSVKGRFTISRDNAKNTVYLQMTRLNPEDTAVYYFAAEHLWGAVFLYVRSTGLDYWGQGTQVTVSS,low polyreactivity
11,QVQLVESGGGLVQAGGSLRLSCAASGSIFLDYAMGWYRQAPGKERELVAANTSDGSTYYADSVKGRFTISRDKAKNTVYLQMNSLKPEDTAVYYCAVQDTSYDVQYSYGYWGQGTHVTVSS,low polyreactivity
12,QVQLVESGGGLVQAGGSLRLSCAASGSIFLFYAMGWYRQAPGKERELVAAISYSGGRTYYADSVKGRFTISRDNAKNTVYLQMNSLNPEDTAVYYCAAVGYSSYPYRRFDYWGQGTQVTVSS,high polyreactivity
13,QVQLVESGGGLVQAGGSLRLSCAASGSIFLHNAMGWYRQAPGTERELVAGITSSGTSTYYADSVKGRFTISRDIAKNTVYLQMNSLKPEDTAVYYCAAYRYGSRGGYWGQGTHVTVSS,high polyreactivity
14,QVQLVESGGGLVQAGGSLRLSCAASGSIFLIYAMGWYRQAPGKERELVAAINYSGVRTYYADSEKGRFTISRDYAKNTLYLPMNSLKPEETAVYYCAPDATSYSYRYNYWGQGTQVTVSS,high polyreactivity
15,QVQLVESGGGLVQAGGSLRLSCAASGSIFLNNAMGWYRQAPGKERELVAAITRNVGSTYYADSVKGRFTISRDNAKNTVYLQMNSLKPEDTAVYYCAADRRRRYDYWGQGTQVTVSS,low polyreactivity
16,QVQLVESGGGLVQAGGSLRLSCAASGSIFLPNAMGWYRQAPGKERELVAVITGGGSTKYADSVKGRFTISRDNAKNTVYLQMNSLKPEDTAVYYCNAQSPVDPSCDYWGRGTQVTVSS,low polyreactivity

row,Sequence,polyreactivity (PSR sort gate)
1,QVQLVESGGGLVQAGGSLRLSCAASGSIFLQYAMGWYRQAPGKERELVAAITTSGRTYYADSVKGRFTISRDNAKYTVYLQMNSLKPEDTAVYYCAATWRYGYYAYYYWGQGTQVTVSS,high polyreactivity
2,QVQLVESGGGLVQAGGSLRLSCAASGSIFLRNAMGWYRQAPGKERALVAAISWGGRTYYADSVKGRFTISRDNAKNTVYLQMNSLKPEDTAVYYCAADGTWVRSPHFYYWGQGTQVTVSS,low polyreactivity
3,QVQLVESGGGLVQAGGSLRLSCAASGSIFLRNAMGWYRQAPGKERELVAAISWGGRTYYADSVKGRFTISRDNAKNTVYLQLNSLKPEDRAVYYCSADGTWVRSPHFYYWGQGTQVTVSS,low polyreactivity
4,QVQLVESGGGLVQAGGSLRLSCAASGSIFLRYAMGWYRQAPGKERELVATISKSGGSTYYADSVKGRFTISRDNAKNTVYLQMNSLKPEDTAVYYCAAGYVYFQTYYYWGQGTQVTVSS,high polyreactivity
5,QVQLVESGGGLVQAGGSLRLSCAASGSIFLRYAMGWYRQAPGKERELVATITSGGRTKYADSVKGRFTISRDNAKNTVYLQMNSLKPEDTAVYYCNAKTQSLKRSTFNYWGQGTQVTVSS,low polyreactivity
6,QVQLVESGGGLVQAGGSLRLSCAASGSIFLRYGMGWYRQAPGKERELVAAISRGGGSTYYADSVKGRFTISRDNAKNTVYLQMNSLKPEDTAVYYCNKASYRYSSDYDYWGQGTQVTVSS,high polyreactivity
7,QVQLVESGGGLVQAGGSLRLSCAASGSIFLSNAMGWYRQAPGKERELVASISGSGSTNYADSVKGRFTISRDNAKNTVYLQMNSLKPEDTAVYYCAAYQRYDSVTGARYEYDYWGQGTQVTVSS,low polyreactivity
8,QVQLVESGGGLVQAGGSLRLSCAASGSIFLSYAMGWYRQAPGKERELVAAISRRGVRTYYADSVKGRFTISRDNAKNTVYLQMNSLKPEDTAVYYCAKDAYFPPWTYGSIFGLYDYWGQGTQVTVSS,low polyreactivity
9,QVQLVESGGGLVQAGGSLRLSCAASGSIFLVYAMGWYRQAPGKERELVAAISSDGDDTYYADSVKGRFTISRDNAKNTVYLQMNSLKPEDTAVYYCAAESYTYYADYGYGYWGQGTQVTVSS,high polyreactivity
10,QVQLVESGGGLVQAGGSLRLSCAASGSIFLVYAMGWYRQAPGKERELVAGITSDDSTNYADSVKGRFTISRDNAKNTVYLQINRLKPEDTAVYYCAKDSLGLYIVDLGYWGQGTQVTVSS,low polyreactivity
11,QVQLVESGGGLVQAGGSLRLSCAASGSIFLVYSMGWYRQAPGKERELVAAISRSGRTYADSVKGRFTISRDNAKNTVYLQMNSLKPEDTAVYYCNKLAVRPGYGSTYDYWGQGTQVTVSS,high polyreactivity
12,QVQLVESGGGLVQAGGSLRLSCAASGSIFLWNAMGWYRQAPGKERELVAAITWRGGSTYYADSVKGRFTISRDNAKNTVYLQMNSLKPEDTAVYYCAADSYDWMDYWGQGTQVTVSS,low polyreactivity
13,QVQLVESGGGLVQAGGSLRLSCAASGSIFLWYAMGWSRQAPGKERELVAALTYSGGTTYYADSVKGRFTISRDNAKNTVYLQLNSLKPEDTAVYYCAKRTAVWTSGGYRKRDYWGQGTQVTVSS,high polyreactivity
14,QVQLVESGGGLVQAGGSLRLSCAASGSIFLWYDMGWYRQAPGKEREFVASITRSGGSTYYADSVKGRFTISRDNAKNTVYLQMNSLKPEDTAVYYCAAGRRSSWRYYLWYDYWGQGTQVTVSS,low polyreactivity
15,QVQLVESGGGLVQAGGSLRLSCAASGSIFLYNAMGWYRQAPGKERELVAAISKSGGSTYYADSVKGRFTISRDNAKNTVYLQMNSLKPEDTAVYYCAAGYGRRIRYGSEYDYWGQGTLVTVSS,low polyreactivity
16,QVQLVESGGGLVQAGGSLRLSCAASGSIFLYYAMGWYRQAPGKERELVAAISQNGGSTYYADSVKGRFTISRDNAKNTVYLQMNSLKPEDTAVYYCNKYSFALRYDYWGQGTQVTVSS,low polyreactivity
